The target of series [1] is FMDV 2C(61–318) (foot-and-mouth disease virus, type [change]).
In series [2] the target is FMDV 2C(34-318) (Foot-and-mouth disease virus type O1K, UniProt P03305 1141-1425). Briefly: EMSA.

From article PMC2915670 come the findings set out here.

The term Kd denotes the free concentration of one partner at which half of the binding sites on the other are occupied at equilibrium, for simple one-to-one binding. High values mean lower affinity, low ones higher affinity.

For FMDV 2C(61–318) (domain or fragment), the ATPase activity (pmol Pi/pmol protein/min) in series [1] was determined as 0.46.
The molecule AAUUCUAAGGGCCAGCGAGA (ssRNA) [20-base ssRNA] registered a Kd in series [2] of roughly 5 µM.
Regarding CGCGAAUAAUUU (ssRNA) [12-base ssRNA], the binding result in series [2] is reported as “binds”.
